# In paper PMC9170038:
# Target: MS2 coat protein, dlFG mutant (Escherichia phage MS2, UniProt P03612, del68-81insG)
# Test: 4 mM Mg2+; no ligand; RNA-MaP array; 100 mM Tris-HCl pH 7.5, 80 mM KCl, 4 mM MgCl2, 0.1 mg/mL BSA, 1 mM DTT, 0.01 mg/mL yeast tRNA, 0.01% Tween-20; protein 1.5 nM to 3 uM; 37 C (Table S3)
# Conditions: chain copies: 2; label: tethered by stalled RNA polymerase
row,Binder,Kd [nM]
1,Eterna 6095051 (Same State NG 3) (ssRNA) RNA: UUAACAUGAGGAUCACCCAUGUAAAGAACGGUUAAUUAAAGUGAGGAUAUACAAAAUUUUAUAUUGUAGAAGGCACUGGGUACA,19.5
2,Eterna 7730917 (Exclusion - Tryptophan A) (ssRNA) RNA: AGACUGUCUUCGGACAGUCCGGACAGCCCGCGAGGACCGGUACGGCCGCCACUCGCGUGAGGAUCACCCAUGCGAGGCUGUCCGA,34.7
3,Eterna 7729933 (Exclusion - Tryptophan B) (ssRNA) RNA: GGAUAGGACACGGCCGCCACUUGCUAGGAUACUAGCAACAUUUCCUCUCAUGAGGAUCACCCAUGAAGGACCGGGUGUCCUAUCG,20.8
4,Eterna 6439566 (Inverted Small Loop Same State NG 1) (ssRNA) RNA: GGACAUUUACAGAAGGGCAAGCUCGAAAGCGGAGAACGCGAACGAGCUUGCAGGAUAUGUUGAACAUGAGGAUCACCCAUGUCU,8.1
5,Eterna 7653871 (Same State - Theophylline B) (ssRNA) RNA: UGUAUGUGAUUUGAUACCAGACCAGCUGGUGGUGCAUGAGGAACACCCAUGCAGGUUUGGGUCCCUUGGCAGCAAAUCGCAUACU,145
6,Eterna 7653873 (Same State - Theophylline B) (ssRNA) RNA: UGUAUGUGAUUUGAUACCAGACCAGCUGGUGGUCCAUGAGGAACACCCAUGGAGGUUUGGGUCCCUUGGCAGCAAAUCGCAUACU,83.2
7,Eterna 6429522 (Inverted Exclusion NG 3) (ssRNA) RNA: GUGGAUAGACGCCCACGUGAGACAUGAGGAUCACCCAUGUACAGAAGGUGGAGCGUUAAUGGUGCCAAGGAUAUGUACAUAAGG,4.92
8,Eterna 6428572 (Exclusion NG 2) (ssRNA) RNA: GUCUCCGCUCGAGGAUAUAGCUGCAUGUAGUGUCCUGAGGCACAUGAGGAUCACCCAUGUGUAGGCUAGAAGGCGACGGACACU,11
9,Eterna 7610184 (Exclusion - Tryptophan B) (ssRNA) RNA: GGAGCUACGUCGGCCGCCACUAGCGGGUAUUGCGUGUACAUGAGGAUCACCCAUGUAAUACGGCCUAGGACCGGGACGUAGCUCC,12
10,Eterna 6095017 (Exclusion NG 3) (ssRNA) RNA: AAGGACUGUAAUAAUGUAGAAAUACAUGAGGAUCACCCAUGUAAGGAUAUCGUCAGGAAUACUGACGAGAAGGUACAUCAGUCC,16.5
11,Eterna 6381991 (Exclusion NG 1) (ssRNA) RNA: AUGCUUUAUGUAGGAUAUGCAUACGGUACGUAUGCAGAAGGACAUGAGGAUCACCCAUGUAAAUUAUUAUUACAUAUCAUACAU,10.9
12,Eterna 5982897 (Exclusion 6) (ssRNA) RNA: GCAUGCUCCGAGGAUAUCGAAGCUAAUUAUGCACGAGAAGGCGGAACAUGAGGAUCACCCAUGUGAUGCCUAAA,14.4
13,Eterna 7609491 (Same State - Tryptophan A) (ssRNA) RNA: ACAUGAGGAUCACCCAUGUUUGUUGUUCCUCGAGGACCGGUACGGCCGCCACUCGAACGAGUGGCACGCGAGUGCGCACUCGCGU,12.3
14,Eterna 1225 (Exclusion - Tryptophan A) (ssRNA) RNA: GGAGGCCAGGCCUGCGAAGUGAUGUUUUGACGAGGACCGGUACGGCCGCCACUCGAAUGUUCUAUCAUCGUACGAACUUCUGCGU,> 3000
15,Eterna 7730095 (Same State - Theophylline B) (ssRNA) RNA: UGUAUGUGAUCUGAUACCAGUCCAACUGGUAAACCAUGAGGAUCACCCAUGGAAAAUUGGGACCCUUGGCAGCAGAUCGCAUACU,310
16,Eterna 6146924 (Exclusion NG 1) (ssRNA) RNA: GUGACGGAUGUAGGAUAUGCUGACCAAUGGUCAGCAGAAGGACAUGAGGAUCACCCAUGUCAUCCUUAUAAUAAAUACCGUCAC,13.7
17,Eterna 6433398 (Small Loop Exclusion NG 3) (ssRNA) RNA: UGAUCGAGAGAUCUUAGAUUCUGGUAGGAUAUACAUUAUAAAAGCUUUACAUGAGGAUCACCCAUGUAGAAGGACUAGAGUCUA,6.84
